The values that follow are results of earlier work, collected in patent publication US20040072753A1, “Peptides for use in the treatment of alzheimer's disease” (priority 2000, published 2004).

The data set has as its target Aβ (Homo sapiens, UniProt P05067). The conditions noted are these: Milton, Biochem. J. 344: 293-296 (1999); read-out: binding KD for catalase.

B1: catalase: antioxidant enzyme that binds Aβ (protein)
chain: ADSRDPASDQMQHWKEQRAAQKADVLTTGAGNPVGDKLNVITVGPRGPLLVQDVVFTDEMAHFDRERIPERVVHAKGAGAFGYFEVTHDITKYSKAKVFEHIGKKTPIAVRFSTVAGESGSADTVRDPRGFAVKFYTEDGNWDLVGNNTPIFFIRDPILFPSFIHSQKRNPQTHLKDPDMVWDFWSLRPESLHQVSFLFSDRGIPDGHRHMNGYGSHTFKLVNANGEAVYCKFHYKTDQGIKNLSVEDAARLSQEDPDYGIRDLFNAIATGKYPSWTFYIQVMTFNQAETFPFNPFDLTKVWPHKDYPLIPVGKLVLNRNPVNYFAEVEQIAFDPSNMPPGIEASPDKMLQGRLFAYPDTHRHRLGPNYLHIPVNCPYRARVANYQRDGPMCMQDNQGGAPNYYPNSFGAPEQQPSALEHSIQYSGEVRRFNTANDDNVTQVRAFYVNVLNEEQRKRLCENIAGHLKDAQIFIQKKAVKNFTEVHPDYGSHIQALLDKYNAEKPKNAIHTFVQSGSHLAAREKANL
B1: the Kd (as a rule, the equilibrium constant for the complex coming apart) was 3.3 nM.
